Molecular target: Hsp82p (Saccharomyces cerevisiae Hsp90), N terminal 6xHis tag (Saccharomyces cerevisiae) (UniProt P02829)
Sequence (P02829 whole entry): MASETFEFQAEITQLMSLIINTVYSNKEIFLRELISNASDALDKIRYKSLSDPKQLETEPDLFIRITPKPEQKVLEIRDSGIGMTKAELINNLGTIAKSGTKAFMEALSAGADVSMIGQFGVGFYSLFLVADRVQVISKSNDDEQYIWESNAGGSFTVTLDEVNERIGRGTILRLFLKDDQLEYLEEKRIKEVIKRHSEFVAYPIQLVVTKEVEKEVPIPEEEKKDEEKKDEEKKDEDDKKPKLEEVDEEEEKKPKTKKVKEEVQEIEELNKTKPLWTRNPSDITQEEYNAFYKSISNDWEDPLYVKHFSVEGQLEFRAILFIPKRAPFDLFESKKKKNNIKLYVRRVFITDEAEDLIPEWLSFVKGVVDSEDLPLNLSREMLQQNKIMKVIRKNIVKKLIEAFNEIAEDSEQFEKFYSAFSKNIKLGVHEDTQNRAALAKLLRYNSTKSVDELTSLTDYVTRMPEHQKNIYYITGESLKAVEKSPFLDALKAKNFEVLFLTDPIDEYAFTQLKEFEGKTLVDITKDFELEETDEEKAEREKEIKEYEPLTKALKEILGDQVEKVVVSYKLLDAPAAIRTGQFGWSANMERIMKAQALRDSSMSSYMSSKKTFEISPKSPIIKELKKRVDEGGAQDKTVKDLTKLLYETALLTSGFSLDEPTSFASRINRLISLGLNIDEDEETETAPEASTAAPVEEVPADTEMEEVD

Row | Binder | apparent affinity (Kapp) from stimulation of the Hsp82p ATPase activity by increasing co-chaperone (1 µM Hsp82p, 2 mM ATP, ATP regenerating system) [µM]
1 | Aha1p, C terminal 6xHis tag (natural protein) MVVNNPNNWHWVDKNCIGWAKEYFKQKLVGVEAGSVKDKKYAKIKSVSSIEGDCEVNQRKGKVISLFDLKITVLIEGHVDSKDGSALPFEGSINVPEVAFDSEASSYQFDISIFKETSELSEAKPLIRSELLPKLRQIFQQFGKDLLATHGNDIQVPESQVKSNYTRGNQKSSFTEIKDSASKPKKNALPSSTSTSAPVSSTNKVPQNGSGNSTSIYLEPTFNVPSSELYETFLDKQRILAWTRSAQFFNSGPKLETKEKFELFGGNVISELVSCEKDKKLVFHWKLKDWSAPFNSTIEMTFHESQEFHETKLQVKWTGIPVGEEDRVRANFEEYYVRSIKLTFGFGAVL | 1.24
2 | Aha1p^Δ11, C terminal 6xHis tag (domain or fragment) VDKNCIGWAKEYFKQKLVGVEAGSVKDKKYAKIKSVSSIEGDCEVNQRKGKVISLFDLKITVLIEGHVDSKDGSALPFEGSINVPEVAFDSEASSYQFDISIFKETSELSEAKPLIRSELLPKLRQIFQQFGKDLLATHGNDIQVPESQVKSNYTRGNQKSSFTEIKDSASKPKKNALPSSTSTSAPVSSTNKVPQNGSGNSTSIYLEPTFNVPSSELYETFLDKQRILAWTRSAQFFNSGPKLETKEKFELFGGNVISELVSCEKDKKLVFHWKLKDWSAPFNSTIEMTFHESQEFHETKLQVKWTGIPVGEEDRVRANFEEYYVRSIKLTFGFGAVL | 0.44

Source: article PMC6426937
